Test results: patent US20160039884A1

What was measured:
Test in all cases: cell-based or functional assay
integrin receptors = molecular target: integrin receptors
α5 integrin subunit = α5 integrin subunit (UniProt P08648)
α5β1 integrin = α5β1 integrin (UniProt P08648)
αv integrin = αv integrin (UniProt P06756)
UniProt P06756, sequence (P06756 31-1048 limits assumed): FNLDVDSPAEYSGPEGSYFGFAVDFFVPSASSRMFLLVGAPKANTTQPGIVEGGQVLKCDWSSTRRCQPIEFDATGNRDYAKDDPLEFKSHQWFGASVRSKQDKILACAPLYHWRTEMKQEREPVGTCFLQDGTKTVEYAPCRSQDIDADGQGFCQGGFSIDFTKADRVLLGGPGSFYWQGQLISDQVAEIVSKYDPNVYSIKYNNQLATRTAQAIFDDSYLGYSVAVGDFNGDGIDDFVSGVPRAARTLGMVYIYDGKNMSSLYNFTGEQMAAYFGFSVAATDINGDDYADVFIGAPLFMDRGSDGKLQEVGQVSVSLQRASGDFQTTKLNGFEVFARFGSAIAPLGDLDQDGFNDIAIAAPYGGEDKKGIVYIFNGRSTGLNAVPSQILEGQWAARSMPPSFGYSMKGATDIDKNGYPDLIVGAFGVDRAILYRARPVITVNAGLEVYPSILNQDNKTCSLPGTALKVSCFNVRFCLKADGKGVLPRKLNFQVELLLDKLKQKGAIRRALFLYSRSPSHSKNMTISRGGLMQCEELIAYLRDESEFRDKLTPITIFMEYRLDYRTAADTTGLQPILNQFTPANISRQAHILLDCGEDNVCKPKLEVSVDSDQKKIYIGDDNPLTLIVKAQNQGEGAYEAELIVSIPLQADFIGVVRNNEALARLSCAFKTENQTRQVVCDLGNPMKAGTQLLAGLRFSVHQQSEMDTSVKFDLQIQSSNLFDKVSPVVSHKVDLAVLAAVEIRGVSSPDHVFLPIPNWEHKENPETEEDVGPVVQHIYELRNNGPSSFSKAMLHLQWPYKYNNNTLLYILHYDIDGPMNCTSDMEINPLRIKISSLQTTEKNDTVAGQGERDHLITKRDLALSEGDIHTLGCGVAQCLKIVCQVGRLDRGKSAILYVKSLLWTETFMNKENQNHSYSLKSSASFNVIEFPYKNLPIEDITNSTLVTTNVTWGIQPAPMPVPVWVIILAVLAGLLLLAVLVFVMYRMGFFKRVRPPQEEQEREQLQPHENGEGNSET

Substance	Fusion (content mixing fusion assay, percent of wild type F) (integrin receptors) [%]	also measured
hMPV F protein (wild type, strain NL/1/00), expressed from pCAGGS-F	100	reduction of fusion activity (syncytium count) after siRNA knockdown of α5 (α5 integrin subunit): 80%; inhibition of cell-cell fusion (content-mixing fusion assay) by anti-α5β1 antibody (α5β1 integrin): 80%; inhibition of cell-cell fusion (content-mixing fusion assay) by anti-αv antibody (αv integrin): 80%; reduction of fusion activity (syncytium count) after siRNA knockdown of αv (αv integrin): 60%
hMPV F protein mutant D331A	58	–
hMPV F protein mutant D331E	118	–
hMPV F protein mutant D331R	107	–
hMPV F protein mutant G330A	20	–
hMPV F protein mutant G330S	9	–
hMPV F protein mutant R329A	13	–
hMPV F protein mutant R329D	13	–
hMPV F protein mutant R329K	72	–
